# Experimental data as given in patent US20230172982A1.
# Biological target: CD20, on SUP-B15 CD20+ cells (UniProt P11836)
# Assay: cell-based or functional assay
# Sequence of UniProt P11836 (P11836 whole entry): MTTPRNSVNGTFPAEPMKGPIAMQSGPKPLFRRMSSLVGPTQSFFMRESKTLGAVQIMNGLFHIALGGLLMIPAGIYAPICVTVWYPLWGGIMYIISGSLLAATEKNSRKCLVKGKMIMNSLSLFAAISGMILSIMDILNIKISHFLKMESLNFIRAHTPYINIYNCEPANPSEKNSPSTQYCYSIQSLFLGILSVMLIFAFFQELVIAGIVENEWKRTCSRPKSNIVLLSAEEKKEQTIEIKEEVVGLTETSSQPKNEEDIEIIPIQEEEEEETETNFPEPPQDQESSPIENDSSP
substance,measurement,value
rituximab (antibody),ADCC by polyclonal BCMA.CAR t-haNK cells (quadracistronic),60%
same,ADCC by polyclonal BCMA.CAR t-haNK cells (tricistronic),55%
